In patent US20190144559A1 (Daiichi Sankyo, published 2019):

T1: Recombinant Human TROP-2 Fc chimera (human, UniProt P09758 27-274, limits assumed)
T1 construct: Used as the analyte in Biacore; also called antigen (Recombinant Human TROP-2 Fc chimera); not shown: Fc part and any linker of the chimera are not described
T1 sequence (looked up): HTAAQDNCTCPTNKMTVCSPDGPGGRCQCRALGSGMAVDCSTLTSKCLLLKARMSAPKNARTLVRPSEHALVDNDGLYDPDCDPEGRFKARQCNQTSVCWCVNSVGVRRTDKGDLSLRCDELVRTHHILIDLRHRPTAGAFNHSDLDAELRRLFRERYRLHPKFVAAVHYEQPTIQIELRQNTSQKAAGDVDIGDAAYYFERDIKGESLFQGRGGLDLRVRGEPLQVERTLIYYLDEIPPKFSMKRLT


Assays:
[1] = molecular target: T1, Recombinant Human TROP-2 Fc chimera; experiment: SPR Biacore 3000, purified antibody captured on anti-human IgG (Fab), antigen as analyte, bivalent model
[2] = molecular target: T1, Recombinant Human TROP-2 Fc chimera; experiment: SPR Biacore 3000, antibody from culture supernatant captured on anti-human IgG (Fab), antigen as analyte, bivalent model

| Binder | Kd [1] [nM] | Kd [2] [nM] |
| --- | --- | --- |
| hRS7 antibody (antibody, V domains shown) VH: QVQLQQSGSELKKPGASVKVSCKASGYTFTNYGMNWVKQAPGQGLKWMGWINTYTGEPTYTDDFKGRFAFSLDTSVSTAYLQISSLKADDTAVYFCARGGFGSSYWYFDVWGQGSLVTVSS VL: DIQLTQSPSSLSASVGDRVSITCKASQDVSIAVAWYQQKPGKAPKLLIYSASYRYTGVPDRFSGSGSGTDFTLTISSLQPEDFAVYYCQQHYITPLTFGAGTKVEIKR | 0.3 |  |
| hTINA1-H2L1 (antibody, human IgG1, kappa, Human IgG1/kappa; also called hTINA1 antibody) heavy: not shown light: DIQMTQSPSSLSASVGDRVTITCKASQDVSTAVAWYQQKPGKAPKLLIYSASYRYTGVPSRFSGSGSGTDFTLTISSLQPEDFAVYYCQQHYITPLTFGQGTKLEIKRTVAAPSVFIFPPSDEQLKSGTASVVCLLNNFYPREAKVQWKVDNALQSGNSQESVTEQDSKDSTYSLSSTLTLSKADYEKHKVYACEVTHQGLSSPVTKSFNRGEC | 30 | 69 |
| hTINA1-H2L2 (antibody, human IgG1, kappa, Human IgG1/kappa; also called hTINA1 antibody) heavy: not shown light: DIVMTQSPSSLSASVGDRVTITCKASQDVSTAVAWYQQKPGKAPKLLIYSASYRYTGVPSRFSGSGSGTDFTLTISSLQPEDFAVYYCQQHYITPLTFGQGTKLEIKRTVAAPSVFIFPPSDEQLKSGTASVVCLLNNFYPREAKVQWKVDNALQSGNSQESVTEQDSKDSTYSLSSTLTLSKADYEKHKVYACEVTHQGLSSPVTKSFNRGEC | 27 | 71 |
| hTINA1-H3L3 (antibody, human IgG1, kappa, V domains shown, Human IgG1/kappa; also called hTINA1 antibody) VH: QIQLVQSGAEVKKPGESVKVSCKASGYTFTTAGMQWVQQMPGKGLEWMGWINTHSGVPKYAEDFKGRVTFSLDTSTSTAYLQLSSLKSEDTAVYYCARSGFGSSYWYFDVWGQGTLVTVSS VL: DIVMTQSPSSLSASVGDRVTITCKASQDVSTAVAWYQQKPGKQPKLLIYSASYRYTGVPSRFSGSGSGTDFTLTISSLQPEDFAVYYCQQHYITPLTFGQGTKLEIKR | 15 | 58 |
| hTINA1-H1L1 (antibody, human IgG1, kappa, V domains shown, Human IgG1/kappa; also called hTINA1 antibody; humanized TINA1) VH: QVQLVQSGAEVKKPGASVKVSCKASGYTFTTAGMQWVRQAPGQGLEWMGWINTHSGVPKYAEDFKGRVTISADTSTSTAYLQLSSLKSEDTAVYYCARSGFGSSYWYFDVWGQGTLVTVSS VL: DIQMTQSPSSLSASVGDRVTITCKASQDVSTAVAWYQQKPGKAPKLLIYSASYRYTGVPSRFSGSGSGTDFTLTISSLQPEDFAVYYCQQHYITPLTFGQGTKLEIKR | 27 | 63 |
| cTINA1 antibody (antibody, human IgG1, V domains shown, Mouse TINA1 variable regions on human IgG1/kappa constant regions; also called human chimeric TINA1 antibody; chimeric TINA1) VH: QIQLVQSGPELKKPGETVRISCKASGYTFTTAGMQWVQKMPGKGLKWIGWINTHSGVPKYAEDFKGRFAFSLETSASTAYLQISNLKNEDTTTYFCARSGFGSSYWYFDVWGAGTAVTVSS VL: DIVMTQSHKFMSTSVGDRVSITCKASQDVSTAVAWYQQKPGQSPKLLIYSASYRYTGVPDRFTGSGSGTAFTFTISSVQAEDLAVYYCQQHYITPLTFGAGTKLELKR |  | 56 |
